Data published in PMC6688830, “A Ubiquitin-Binding Domain that Binds a Structural Fold Distinct from that of Ubiquitin” (Structure(London, England:1993), 2019).

T1: FLAG-SMARCAD1 (WT) (human, UniProt Q9H4L7 1-1026)
T1 construct: SMARCAD1, human, UniProt Q9H4L7, full length; also called wild-type SMARCAD1; pET28a-SUMO-F-SMARCAD1; source: E. coli BL-21 CodonPlus (DE3)-RIL, purified (HisTrap, Ulp1, heparin, ProSwift SAX)
T1 sequence (looked up): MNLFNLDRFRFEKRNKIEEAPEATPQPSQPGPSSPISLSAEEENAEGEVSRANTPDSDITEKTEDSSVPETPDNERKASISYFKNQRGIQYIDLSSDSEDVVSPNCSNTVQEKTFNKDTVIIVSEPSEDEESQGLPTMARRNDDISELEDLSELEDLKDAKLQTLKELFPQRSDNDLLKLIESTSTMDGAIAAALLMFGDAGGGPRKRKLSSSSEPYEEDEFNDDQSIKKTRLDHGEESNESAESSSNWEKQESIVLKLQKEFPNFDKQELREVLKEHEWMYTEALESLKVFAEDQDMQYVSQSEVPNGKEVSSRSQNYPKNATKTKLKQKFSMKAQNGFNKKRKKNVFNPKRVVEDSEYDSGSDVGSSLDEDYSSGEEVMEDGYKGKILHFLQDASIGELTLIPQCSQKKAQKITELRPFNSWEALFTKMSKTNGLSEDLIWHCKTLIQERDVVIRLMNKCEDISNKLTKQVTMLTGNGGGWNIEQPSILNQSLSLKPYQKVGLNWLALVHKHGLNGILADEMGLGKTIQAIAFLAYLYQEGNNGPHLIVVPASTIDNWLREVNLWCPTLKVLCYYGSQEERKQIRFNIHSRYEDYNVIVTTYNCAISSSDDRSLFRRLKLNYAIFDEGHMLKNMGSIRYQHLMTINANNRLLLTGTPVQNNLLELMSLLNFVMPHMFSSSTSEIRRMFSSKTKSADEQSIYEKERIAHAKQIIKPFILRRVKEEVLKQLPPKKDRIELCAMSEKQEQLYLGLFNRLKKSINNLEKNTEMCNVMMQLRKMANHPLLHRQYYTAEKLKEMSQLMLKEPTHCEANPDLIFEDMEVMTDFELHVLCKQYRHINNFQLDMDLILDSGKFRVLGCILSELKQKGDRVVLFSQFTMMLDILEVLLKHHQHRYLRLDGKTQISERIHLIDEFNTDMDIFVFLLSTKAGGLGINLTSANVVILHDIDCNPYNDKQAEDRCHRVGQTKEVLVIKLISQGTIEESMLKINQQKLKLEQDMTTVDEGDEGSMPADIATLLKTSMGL


target: T2, KAP1 S33-K434 (human, UniProt Q13263 33-434); test: co-IP; purified SMARCAD1 fragments (FLAG-CUE1,2, FLAG-CUE1) and KAP1 RBCC, 9.6μg each in 240μL, 4°C 1 hour; anti-FLAG M2 affinity gel 3 hours; conditions: both partners purified
T2 construct: KAP1 (TRIM28), human, UniProt Q13263, residues S33-K434 (RBCC domain); The crystal structures of shorter RBCC constructs show an antiparallel homodimer; also called KAP1 RBCC (S33-K434); KAP1 RBCC; source: E. coli BL-21 CodonPlus (DE3)-RP, purified (Ni-NTA, Ulp1, Mono Q)

Row | binding result | Binder
1 | binds | FLAG-CUE1,2 L196A (domain or fragment, human, UniProt Q9H4L7 95-347, looked up, SMARCAD1, human, UniProt Q9H4L7, CUE1,2 fragment S95-N347; source: E. coli BL-21 CodonPlus (DE3)-RIL, purified (Ni-NTA, Ulp1, Mono Q if required)) SSDSEDVVSPNCSNTVQEKTFNKDTVIIVSEPSEDEESQGLPTMARRNDDISELEDLSELEDLKDAKLQTLKELFPQRSDNDLLKLIESTSTMDGAIAAALAMFGDAGGGPRKRKLSSSSEPYEEDEFNDDQSIKKTRLDHGEESNESAESSSNWEKQESIVLKLQKEFPNFDKQELREVLKEHEWMYTEALESLKVFAEDQDMQYVSQSEVPNGKEVSSRSQNYPKNATKTKLKQKFSMKAQNGFNKKRKKN
2 | binds | FLAG-CUE1,2 A192G (domain or fragment, human, UniProt Q9H4L7 95-347, looked up, SMARCAD1, human, UniProt Q9H4L7, CUE1,2 fragment S95-N347; source: E. coli BL-21 CodonPlus (DE3)-RIL, purified (Ni-NTA, Ulp1, Mono Q if required)) SSDSEDVVSPNCSNTVQEKTFNKDTVIIVSEPSEDEESQGLPTMARRNDDISELEDLSELEDLKDAKLQTLKELFPQRSDNDLLKLIESTSTMDGAIGAALLMFGDAGGGPRKRKLSSSSEPYEEDEFNDDQSIKKTRLDHGEESNESAESSSNWEKQESIVLKLQKEFPNFDKQELREVLKEHEWMYTEALESLKVFAEDQDMQYVSQSEVPNGKEVSSRSQNYPKNATKTKLKQKFSMKAQNGFNKKRKKN
3 | binds | FLAG-CUE1,2 D188A (domain or fragment, human, UniProt Q9H4L7 95-347, looked up, SMARCAD1, human, UniProt Q9H4L7, CUE1,2 fragment S95-N347; source: E. coli BL-21 CodonPlus (DE3)-RIL, purified (Ni-NTA, Ulp1, Mono Q if required)) SSDSEDVVSPNCSNTVQEKTFNKDTVIIVSEPSEDEESQGLPTMARRNDDISELEDLSELEDLKDAKLQTLKELFPQRSDNDLLKLIESTSTMAGAIAAALLMFGDAGGGPRKRKLSSSSEPYEEDEFNDDQSIKKTRLDHGEESNESAESSSNWEKQESIVLKLQKEFPNFDKQELREVLKEHEWMYTEALESLKVFAEDQDMQYVSQSEVPNGKEVSSRSQNYPKNATKTKLKQKFSMKAQNGFNKKRKKN
4 | binds | FLAG-CUE1,2 K166A (domain or fragment, human, UniProt Q9H4L7 95-347, looked up, SMARCAD1, human, UniProt Q9H4L7, CUE1,2 fragment S95-N347; source: E. coli BL-21 CodonPlus (DE3)-RIL, purified (Ni-NTA, Ulp1, Mono Q if required)) SSDSEDVVSPNCSNTVQEKTFNKDTVIIVSEPSEDEESQGLPTMARRNDDISELEDLSELEDLKDAKLQTLAELFPQRSDNDLLKLIESTSTMDGAIAAALLMFGDAGGGPRKRKLSSSSEPYEEDEFNDDQSIKKTRLDHGEESNESAESSSNWEKQESIVLKLQKEFPNFDKQELREVLKEHEWMYTEALESLKVFAEDQDMQYVSQSEVPNGKEVSSRSQNYPKNATKTKLKQKFSMKAQNGFNKKRKKN

target: T1, FLAG-SMARCAD1 (WT); test: co-IP; purified full-length SMARCAD1 and KAP1 from E. coli, 7μg each in 280μL SK binding buffer, 200mM NaCl, 4°C; immunoprecipitated with anti-FLAG M2 affinity gel; conditions: both partners purified

Row | binding result | Binder
5 | binds | HA-KAP1 (natural protein, human, UniProt Q13263 1-835, looked up, KAP1 (TRIM28), human, UniProt Q13263, full length; also called hemagglutinin-tagged KAP1; TRIM28; source: E. coli BL-21 CodonPlus (DE3)-RP, purified (HisTrap, Ulp1, heparin, Sephacryl S-400)) MAASAAAASAAAASAASGSPGPGEGSAGGEKRSTAPSAAASASASAAASSPAGGGAEALELLEHCGVCRERLRPEREPRLLPCLHSACSACLGPAAPAAANSSGDGGAAGDGTVVDCPVCKQQCFSKDIVENYFMRDSGSKAATDAQDANQCCTSCEDNAPATSYCVECSEPLCETCVEAHQRVKYTKDHTVRSTGPAKSRDGERTVYCNVHKHEPLVLFCESCDTLTCRDCQLNAHKDHQYQFLEDAVRNQRKLLASLVKRLGDKHATLQKSTKEVRSSIRQVSDVQKRVQVDVKMAILQIMKELNKRGRVLVNDAQKVTEGQQERLERQHWTMTKIQKHQEHILRFASWALESDNNTALLLSKKLIYFQLHRALKMIVDPVEPHGEMKFQWDLNAWTKSAEAFGKIVAERPGTNSTGPAPMAPPRAPGPLSKQGSGSSQPMEVQEGYGFGSGDDPYSSAEPHVSGVKRSRSGEGEVSGLMRKVPRVSLERLDLDLTADSQPPVFKVFPGSTTEDYNLIVIERGAAAAATGQPGTAPAGTPGAPPLAGMAIVKEEETEAAIGAPPTATEGPETKPVLMALAEGPGAEGPRLASPSGSTSSGLEVVAPEGTSAPGGGPGTLDDSATICRVCQKPGDLVMCNQCEFCFHLDCHLPALQDVPGEEWSCSLCHVLPDLKEEDGSLSLDGADSTGVVAKLSPANQRKCERVLLALFCHEPCRPLHQLATDSTFSLDQPGGTLDLTLIRARLQEKLSPPYSSPQEFAQDVGRMFKQFNKLTEDKADVQSIIGLQRFFETRMNEAFGDTKFSAVLVEPPPMSLPGAGLSSQELSGGPGDGP

target: T3, Ubiquitin (UniProt P0CG48 1-76); test: ITC; MicroCal ITC200, 10°C; 120 μM SMARCAD1 CUE1 or CUE1,2 in the cell, 9.8 mM mono-Ub in the syringe; 10 mM Tris-HCl pH 7.9, 100 mM NaCl, 5 mM β-ME; One set of sites model; conditions: both partners purified
T3 construct: ubiquitin, monomeric, the cut product of a ubiquitin precursor; also called mono-Ub; monomeric ubiquitin; source: bought: Boston Biochem (purified recombinant)

Row | Kd | Binder
6 | ~952 µM | FLAG-CUE1 (domain or fragment, human, UniProt Q9H4L7 95-237, looked up, SMARCAD1, human, UniProt Q9H4L7, residues S95-E237 (first CUE domain); also called wild-type CUE1 fragment (S95-E237); SMARCAD1 CUE1; source: E. coli BL-21 CodonPlus (DE3)-RIL, purified (Ni-NTA, Ulp1, Mono Q if required)) SSDSEDVVSPNCSNTVQEKTFNKDTVIIVSEPSEDEESQGLPTMARRNDDISELEDLSELEDLKDAKLQTLKELFPQRSDNDLLKLIESTSTMDGAIAAALLMFGDAGGGPRKRKLSSSSEPYEEDEFNDDQSIKKTRLDHGE

target: T2, KAP1 S33-K434; test: ITC; MicroCal ITC200, 20°C; KAP1 RBCC (9-18 μM) in the cell, SMARCAD1 CUE1 or CUE1,2 (90-300 μM) in the syringe; 10 mM Tris-HCl pH 7.9, 100 mM NaCl, 5 mM β-ME; One set of sites model; conditions: both partners purified

Row | Kd | Binder
7 | ~0.158 µM | FLAG-CUE1 (domain or fragment, human, UniProt Q9H4L7 95-237, looked up, SMARCAD1, human, UniProt Q9H4L7, residues S95-E237 (first CUE domain); also called wild-type CUE1 fragment (S95-E237); SMARCAD1 CUE1; source: E. coli BL-21 CodonPlus (DE3)-RIL, purified (Ni-NTA, Ulp1, Mono Q if required)) SSDSEDVVSPNCSNTVQEKTFNKDTVIIVSEPSEDEESQGLPTMARRNDDISELEDLSELEDLKDAKLQTLKELFPQRSDNDLLKLIESTSTMDGAIAAALLMFGDAGGGPRKRKLSSSSEPYEEDEFNDDQSIKKTRLDHGE
